Measurements: article PMC11098746 (2024)
No end group written: not given here.

B1: ADP264 (protein)
chain: GRFSLFGLGGEPGGGAAGPAAAADGGTVDLREMLAVSVLAAVRGGDEVRRVRESNVLHEKSKGKTREGAEDKMTSGDVLSNRKMFYLLKTAFPSVQINTEEHVDAADQEVILWDHKIPEDILKEVTTPKEVPAESVTVWIDPLDATQEYTEDLRKYVTTMVCVAVNGKPMLGVIHKPFSEYTAWAMVDGGSNVKARSSYNEKTPRIVVSRSHSGMVKQVALQTFGNQTTIIPAGGAGYKVLALLDVPDKSQEKADLYIHVTYIKKWDICAGNAILKALGGHMTTLSGEEISYTGSDGIEGGLLASIRMNHQALVRKLPDLEKTGHK
modifications: bait human Fc-tagged dimer
B2: ADP375 (protein)
chain: SSKYAPDENCPDQNPRLRNWDPGQDSAKQVVIKEGDMLRLTSDATVHSIVIQDGGLLVFGDNKDGSRNITLRTHYILIQDGGALHIGAEKCRYKSKATITLYGKSDEGESMPTFGKKFIGVEAGGTLELHGARKASWTLLARTLNSSGLPFGSYTFEKDFSRGLNVRVIDQDTAKILESERFDTHEYRNESRRLQEFLRFQDPGRIVAIAVGDSAAKSLLQGTIQMIQERLGSELIQGLGYRQAWALVGVIDGGSTSCNESVRNYENHSSGGKALAQREFYTVDGQKFSVTAYSEWIEGVSLSGFRVEVVDGVKLNLLDDVSSWKPGDQIVVASTDYSMYQAEEFTLLPCSECSHFQVKVKETPQFLHMGEIIDGVDMRAEVGILTRNIVIQGEVEDSCYAENQCQFFDYDTFGGHIMIMKNFTSVHLSYVELKHMGQQQMGRYPVHFHLCGDVDYKGGYRHATFVDGLSIHHSFSRCITVHGTNGLLIKDTIGFDTLGHCFFLEDGIEQRNTLFHNLGLLTKPGTLLPTDRNNSMCTTMRDKVFGNYIPVPATDCMAVSTFWIAHPNNNLINNAAAGSQDAGIWYLFHKEPTGESSGLQLLAKPELTPLGIFYNNRVHSNFKAGLFIDKGVKTTNSSAADPREYLCLDNSARFRPHQDANPEKPRVAALIDRLIAFKNNDNGAWVRGGDIIVQNSAFADNGIGLTFASDGSFPSDEGSSQEVSESLFVGESRNYGFQGGQNKYVGTGGIDQKPRTLPRNRTFPIRGFQIYDGPIHLTRSTFKKYVPTPDRYSSAIGFLMKNSWQITPRNNISLVKFGPHVSLNVFFGKPGPWFEDCEMDGDKNSIFHDIDGSVTGYKDAYVGRMDNYLIRHPSCVNVSKWNAVICSGTYAQVYVQTWSTQNLSMTITRDEYPSNPMVLRGINQKAAFPQYQPVVMLEKGYTIHWNGPAPRTTFLYLVNFNKNDWIRVGLCYPSNTSFQVTFGYLQRQNGSLSKIEEYEPVHSLEELQRKQSERKFYFDSSTGLLFLYLKAKSHRHGHSYCSSQGCERVKIQAATDSKDISNCMAKAYPQYYRKPSVVKRMPAMLTGLCQGCGTRQVVFTSDPHKSYLPVQFQSPDKAETQRGDPSVISVNGTDFTFRSAGVLLLVVDPCSVPFRLTEKTVFPLADVSRIEEYLKTGIPPRSIVLLSTRGEIKQLNISHLLVPLGLAKPAHLYDKGSTIFLGFSGNFKPSWTKLFTSPAGQGLGVLEQFIPLQLDEYGCPRATTVRRRDLELLKQASKAH
modifications: bait human Fc-tagged dimer
B3: ADP153 (protein)
chain: MAGIWTLLPLVLTSVARLSSKSVNAQVTDINSKGLELRKTVTTVETQNLEGLHHDGQFCHKPCPPGERKARDCTVNGDEPDCVPCQEGKEYTDKAHFSSKCRRCRLCDEGHGLEVEINCTRTQNTKCRCKPNFFCNSTVCEHCDPCTKCEHGIIKECTLTSNTKCKEEGS
modifications: bait human Fc-tagged dimer
B4: ADP159 (protein)
chain: MAALRPTLLPPSLPLLLLLMLGMGCWAREVLVPEGPLYRVAGTAVSISCNVTGYEGPAQQNFEWFLYRPEAPDTALGIVSTKDTQFSYAVFKSRVVAGEVQVQRLQGDAVVLKIARLQAQDAGIYECHTPSTDTRYLGSYSGKVELRVLPDVLQVSAAPPGPRGRQAPTSPPRMTVHEGQELALGCLARTSTQKHTHLAVSFGRSVPEAPVGRSTLQEVVGIRSDLAVEAGAPYAERLAAGELRLGKEGTDRYRMVVGGAQAGDAGTYHCTAAEWIQDPDGSWAQIAEKRAVLAHVDVQTLSSQLAVTVGPGERRIGPGEPLELLCNVSGALPPAGRHAAYSVGWEMAPAGAPGPGRLVAQLDTEGVGSLGPGYEGRHIAMEKVASRTYRLRLEAARPGDAGTYRCLAKAYVRGSGTRLREAASARSRPLPVHVREEGVVLEAVAWLAGGTVYRGETASLLCNISVRGGPPGLRLAASWWVERPEDGELSSVPAQLVGGVGQDGVAELGVRPGGGPVSVELVGPRSHRLRLHSLGPEDEGVYHCAPSAWVQHADYSWYQAGSARSGPVTVYPYMHALDT
modifications: bait human Fc-tagged dimer
B5: ADP149 (protein)
chain: MAWKHVPFLVMISLLSLSPNHLFLAQLIPDPEDVERGNDHGTPIPTSDNDDNSLGYTGSRLRQEDFPPRIVEHPSDLIVSKGEPATLNCKAEGRPTPTIEWYKGGERVETDKDDPRSHRMLLPSGSLFFLRIVHGRKSRPDEGVYVCVARNYLGEAVSHNASLEVAILRDDFRQNPSDVMVAVGEPAVMECQPPRGHPEPTISWKKDGSPLDDKDERITIRGGKLMITYTRKSDAGKYVCVGTNMVGERESEVAELTVLERPSFVKRPSNLAVTVDDSAEFKCEARGDPVPTVRWRKDDGELPKSRYEIRDDHTLKIRKVTAGDMGSYTCVAENMVGKAEASATLTVQEPPHFVVKPRDQVVALGRTVTFQCEATGNPQPAIFWRREGSQNLLFSYQPPQSSSRFSVSQTGDLTITNVQRSDVGYYICQTLNVAGSIITKAYLEVTDVIADRPPPVIRQGPVNQTVAVDGTFVLSCVATGSPVPTILWRKDGVLVSTQDSRIKQLENGVLQIRYAKLGDTGRYTCIASTPSGEATWSAYIEVQEFGVPVQPPRPTDPNLIPSAPSKPEVTDVSRNTVTLSWQPNLNSGATPTSYIIEAFSHASGSSWQTVAENVKTETSAIKGLKPNAIYLFLVRAANAYGISDPSQISDPVKTQDVLPTSQGVDHKQVQRELGNAVLHLHNPTVLSSSSIEVHWTVDQQSQYIQGYKILYRPSGANHGESDWLVFEVRTPAKNSVVIPDLRKGVNYEIKARPFFNEFQGADSEIKFAKTLEEAPSAPPQGVTVSKNDGNGTAILVSWQPPPEDTQNGMVQEYKVWCLGNETRYHINKTVDGSTFSVVIPFLVPGIRYSVEVAASTGAGSGVKSEPQFIQLDAHGNPVSPEDQVSLAQQISDVVKQP
modifications: bait human Fc-tagged dimer
B6: ADP345 (protein)
chain: MALLAGGLSRGLGSHPAAAGRDAVVFVWLLLSTWCTAPARAIQVTVSNPYHVVILFQPVTLPCTYQMTSTPTQPIVIWKYKSFCRDRIADAFSPASVDNQLNAQLAAGNPGYNPYVECQDSVRTVRVVATKQGNAVTLGDYYQGRRITITGNADLTFDQTAWGDSGVYYCSVVSAQDLQGNNEAYAELIVLGRTSGVAELLPGFQAGP
modifications: bait human Fc-tagged dimer
B7: ADP109 (protein)
chain: MGIQGGSVLFGLLLVLAVFCHSGHSLQCYNCPNPTADCKTAVNCSSDFDACLITKAGLQVYNKCWKFEHCNFNDVTTRLRENELTYYCCKKDLCNFNEQLEN
modifications: bait human Fc-tagged dimer
B8: ADP388 (protein)
chain: SEGHGGAQLQAELRSLKEAFSNFSSSTLTEVQAISTHGGSVGDKITSLGAKLEKQQQDLKADHDALLFHLKHFPVDLRFVACQMELLHSNGSQRTCCPVNWVEHQGSCYWFSHSGKAWAEAEKYCQLENAHLVVINSWEEQKFIVQHTNPFNTWIGLTDSDGSWKWVDGTDYRHNYKNWAVTQPDNWHGHELGGSEDCVEVQPDGRWNDDFCLQVYRWVCEKRRNATGEVA
modifications: bait human Fc-tagged dimer
B9: ADP391 (protein)
chain: SSRHVLLQEEVAELQGQVQRTEVARGRLEKRNSDLLLLVDTHKKQIDQKEADYGRLSSRLQAREGLGKRCEDDKVKLQNNISYQMADIHHLKEQLAELRQEFLRQEDQLQDYRKNNTYLVKRLEYESFQCGQQMKELRAQHEENIKKLADQFLEEQKQETQKIQSNDGKELDINNQVVPKNIPKVAENVADKNEEPSSNHIPHGKEQIKRGGDAGMPGIEENDLAKVDDLPPALRKPPISVSQHESHQAISHLPTGQPLSPNMPPDSHINHNGNPGTSKQNPSSPLQRLIPGSNLDSEPRIQTDILKQATKDRVSDFHKLKQSRFFDENESPVDPQHGSKLADYNGDDGNVGEYEADKQAELAYNEEEDGDGGEEDVQGERGPGLHAITMKPTSKFFG
modifications: bait human Fc-tagged dimer
B10: ADP135 (protein)
chain: MTPPRLFWVWLLVAGTQGVNDGDMRLADGGATNQGRVEIFYRGQWGTVCDNLWDLTDASVVCRALGFENATQALGRAAFGQGSGPIMLDEVQCTGTEASLADCKSLGWLKSNCRHERDAGVVCTNETRSTHTLDLSRELSEALGQIFDSQRGCDLSISVNVQGEDALGFCGHTVILTANLEAQALWKEPGSNVTMSVDAECVPMVRDLLRYFYSRRIDITLSSVKCFHKLASAYGARQLQGYCASLFAILLPQDPSFQMPLDLYAYAVATGDALLEKLCLQFLAWNFEALTQAEAWPSVPTDLLQLLLPRSDLAVPSELALLKAVDTWSWGERASHEEVEGLVEKIRFPMMLPEELFELQFNLSLYWSHEALFQKKTLQALEFHTVPFQLLARYKGLNLTEDTYKPRIYTSPTWSAFVTDSSWSARKSQLVYQSRRGPLVKYSSDYFQAPSDYRYYPYQSFQTPQHPSFLFQDKRVSWSLVYLPTIQSCWNYGFSCSSDELPVLGLTKSGGSDRTIAYENKALMLCEGLFVADVTDFEGWKAAIPSALDTNSSKSTSSFPCPAGHFNGFRTVIRPFYLTNSSGVD
modifications: bait human Fc-tagged dimer
B11: ADP281 (protein)
chain: SIYEMVVDVLFLCFAIDTKYNDGSPGREFYMDKVLMEFVENSRKAMKEAGKGGVADSRELKPMASG
modifications: also: human Fc-tagged dimer
B12: ADP304 (protein)
chain: MASGWWLWPLVAVCTADFFRDEAERIMRDSPVIDGHNDLPWQLLDMFNNRLQDERANLTTLAGTHTNIPKLRAGFVGGQFWSVYTPCDTQNKDAVRRTLEQMDVVHRMCRMYPETFLYVTSSAGIRQAFREGKVASLIGVEGGHSIDSSLGVLRALYQLGMRYLTLTHSCNTPWADNWLVDTGDSEPQSQGLSPFGQRVVKELNRLGVLIDLAHVSVATMKATLQLSRAPVIFSHSSAYSVCASRRNVPDDVLRLVKQTDSLVMVNFYNNYISCTNKANLSQVADHLDHIKEVAGARAVGFGGDFDGVPRVPEGLEDVSKYPDLIAELLRRNWTEAEVKGALADNLLRVFEAVEQASNLTQAPEEEPIPLDQLGGSCRTHYGYSS
modifications: bait human Fc-tagged dimer
B13: ADP137 (protein)
chain: MAVVGNPRSWSCQWLPILILLLGTGHGPGVEGVTHYKAGDPVILYVNKVGPYHNPQETYHYYQLPVCCPEKIRHKSLSLGEVLDGDRMAESLYEIRFRENVEKRILCHMQLSSAQVEQLRQAIEELYYFEFVVDDLPIRGFVGYMEESGFLPHSHKIGLWTHLDFHLEFHGDRIIFANVSVRDVKPHSLDGLRPDEFLGLTHTYSVRWSETSVERRSDRRRGDDGGFFPRTLEIHWLS
modifications: bait human Fc-tagged dimer

Each binder was assayed against Circumsporozoite protein (CSP) (Plasmodium falciparum (isolate 3D7), UniProt Q7K740) (assay: AVEXIS screen signal:noise (double-corrected)).
Chain of Circumsporozoite protein (CSP) (Q7K740 19-374): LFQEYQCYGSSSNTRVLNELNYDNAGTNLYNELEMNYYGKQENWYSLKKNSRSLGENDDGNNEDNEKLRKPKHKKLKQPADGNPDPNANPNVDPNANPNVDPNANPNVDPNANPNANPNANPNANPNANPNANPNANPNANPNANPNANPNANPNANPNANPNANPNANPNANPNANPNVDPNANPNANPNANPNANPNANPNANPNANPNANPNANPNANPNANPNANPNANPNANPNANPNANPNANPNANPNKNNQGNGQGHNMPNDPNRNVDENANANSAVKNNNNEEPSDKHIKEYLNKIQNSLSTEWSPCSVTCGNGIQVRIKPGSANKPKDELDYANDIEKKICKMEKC
B1 gave a binding score of 0.964.
B2 was tested, and the binding score was 0.71.
Binder B3 has a binding score of 1.01.
MTGLSMDGGGSPKGDVDPFYYDYETVRN (also: human Fc-tagged dimer) [ADP286] showed a binding score of 1.14.
Binder B4 has a binding score of 0.885.
B5 was tested, and the binding score was 0.924.
Work on B6 yielded a binding score of 0.842.
For B7, the binding score was 1.68.
B8 was tested, and the binding score was 0.484.
For B9, the binding score was 0.592.
With B10 the binding score was 0.514.
Binder B11 has a binding score of 0.848.
Binder B12 has a binding score of 0.718.
In the case of B13, the binding score is reported as 0.831.
